Assay results: paper PMC11494953 (2024)

Biological target: EV-A71 2C protein (analyte of the SPR assay) (Enterovirus A71 (strain ), UniProt Q66478 1112-1440)
Experiment: SPR

B1: UBE3C protein (TP315110, ORIGENE) (enzyme)
chain: MFSFEGDFKTRPKVSLGGASRKEEKASLLHRTQEERRKREEERRRLKNAIIIQSFIRGYRDRKQQYSIQRSAFDRCATLSQSGGAFPIANGPNLTLLVRQLLFFYKQNEDSKRLIWLYQNLIKHSSLFVKQLDGSERLTCLFQIKRLMSLCCRLLQNCNDDSLNVALPMRMLEVFSSENTYLPVLQDASYVVSVIEQILHYMIHNGYYRSLYLLINSKLPSSIEYSDLSRVPIAKILLENVLKPLHFTYNSCPEGARQQVFTAFTEEFLAAPFTDQIFHFIIPALADAQTVFPYEPFLNALLLIESRCSRKSGGAPWLFYFVLTVGENYLGALSEEGLLVYLRVLQTFLSQLPVSPASASCHDSASDSEEESEEADKPSSPEDGRLSVSYITEECLKKLDTKQQTNTLLNLVWRDSASEEVFTTMASVCHTLMVQHRMMVPKVRLLYSLAFNARFLRHLWFLISSMSTRMITGSMVPLLQVISRGSPMSFEDSSRIIPLFYLFSSLFSHSLISIHDNEFFGDPIEVVGQRQSSMMPFTLEELIMLSRCLRDACLGIIKLAYPETKPEVREEYITAFQSIGVTTSSEMQQCIQMEQKRWIQLFKVITNLVKMLKSRDTRRNFCPPNHWLSEQEDIKADKVTQLYVPASRHVWRFRRMGRIGPLQSTLDVGLESPPLSVSEERQLAVLTELPFVVPFEERVKIFQRLIYADKQEVQGDGPFLDGINVTIRRNYIYEDAYDKLSPENEPDLKKRIRVHLLNAHGLDEAGIDGGGIFREFLNELLKSGFNPNQGFFKTTNEGLLYPNPAAQMLVGDSFARHYYFLGRMLGKALYENMLVELPFAGFFLSKLLGTSADVDIHHLASLDPEVYKNLLFLKSYEDDVEELGLNFTVVNNDLGEAQVVELKFGGKDIPVTSANRIAYIHLVADYRLNRQIRQHCLAFRQGLANVVSLEWLRMFDQQEIQVLISGAQVPISLEDLKSFTNYSGGYSADHPVIKVFWRVVEGFTDEEKRKLLKFVTSCSRPPLLGFKELYPAFCIHNGGSDLERLPTASTCMNLLKLPEFYDETLLRSKLLYAIECAAGFELS
- Kd: 72.1 µM
